Assay results from the Immune Epitope Database (IEDB).
pIC50: −log10 of the molar value.

The sequences below were run against HLA-B*07:02 (assay: IEDB peptide-MHC binding, purified MHC/competitive/radioactivity; ≥ and ≤ were set here for values at or beyond the usual limits of such assays). Conditions: source organism: Bordetella pertussis.

Question: SPRRARRAL was tested. Which pIC50 did it give?
Answer: 7.86

Question: With APQAAPLSI as the sequence, how does the pIC50 read?
Answer: 5.66

The sequences below were run against HLA-B*35:01 in the same assay as above. Conditions: source organism: Bordetella pertussis.

Question: With LAAIASAAH as the sequence, how does the pIC50 read?
Answer: 4.30

Question: AAGFDPEVQ was tested. Which pIC50 did it give?
Answer: 4.49

Question: LANDGTIVI was tested. Which pIC50 did it give?
Answer: 5.23

Question: How did the pIC50 turn out when LAPTVGVAF was run?
Answer: 5.12

Each sequence was assayed against HLA-A*02:01 in the same assay as above. Conditions: source organism: Bordetella pertussis.

Question: With LAMPWTFHA as the sequence, how does the pIC50 read?
Answer: 5.93

Question: With VLAPRLYLT as the sequence, how does the pIC50 read?
Answer: 5.10

Question: With ALMLACTGL as the sequence, how does the pIC50 read?
Answer: 4.97

Question: With YQTYTEWSV as the sequence, how does the pIC50 read?
Answer: 6.42

Question: How did the pIC50 turn out when LLNAGGTLL was run?
Answer: 5.59

Each sequence was assayed against HLA-B*53:01 in the same assay as above. Conditions: source organism: Bordetella pertussis.

Question: How did the pIC50 turn out when TFTGKVTNG was run?
Answer: 4.40

Question: How did the pIC50 turn out when TPFDIKLKE was run?
Answer: 4.46

Question: How did the pIC50 turn out when LAWALMLAC was run?
Answer: 5.18

Question: How did the pIC50 turn out when YYDYEDATF was run?
Answer: 4.16

Question: How did the pIC50 turn out when TPFIIKLKD was run?
Answer: ≤ 4.11

Question: GLYQTYTEW was tested. Which pIC50 did it give?
Answer: 4.16

Question: With APQAAPLSI as the sequence, how does the pIC50 read?
Answer: 4.37

Each sequence was assayed against HLA-B*57:01 in the same assay as above. Conditions: source organism: Bordetella pertussis.

Question: ISVRVHVSK was tested. Which pIC50 did it give?
Answer: 5.56

Question: ITNKRAALI was tested. Which pIC50 did it give?
Answer: 4.40

Question: How did the pIC50 turn out when GLYQTYTEW was run?
Answer: 4.38

The sequences below were run against HLA-B*44:03 in the same assay as above. Conditions: source organism: Bordetella pertussis.

Question: With QQVQVLQRQ as the sequence, how does the pIC50 read?
Answer: 4.80

Question: IESKISQSV was tested. Which pIC50 did it give?
Answer: 4.40
